The data set in a line: yeast display, Sf9 membrane polyspecificity reagent, FACS + sequencing; frameworks hold sequencing errors. The method in brief: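 Galactose-induced (36–48 hours) yeast carrying a synthetic nanobody display library were exposed to 10% biotinylated, detergent-solubilized Sf9 membrane reagent at 4 °C for 1 hour. FACS followed streptavidin microbead enrichment, using low and high (top ~1%) gates for expression (anti-HA) and reagent binding (streptavidin). Colony PCR, MiSeq 2 × 250 sequencing and CDR-length filtering followed. Labels for polyreactivity reflect the gate of origin.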
As for “QFQLVESGGGLVQAGGSLRLSCAASGSIFYYNAMGCYRQAPGKEREVVAAISWSGGSTYYADSVKGRFTISRDNAKNTVYLQMNSLKPEDTAVYYCNAVGWYTYFYGSRKYNSWGQGTQVTVSS”, the “polyreactivity (PSR sort gate)” value is given as “low polyreactivity”.
For the sequence “QVQHVESGGGLVQAGGSLRLRCAASGTTFSSNAMGWSRHAPGKERELVASITRGGSTSADSVKGRFTISRDNAKNTVYLQMNSLKPEDTAVYYCAKSVTGWRGLWYTPRNYYWGQGTQVTVSS”, the “polyreactivity (PSR sort gate)” value is “high polyreactivity”.
Regarding “QVQLVESGGGLVQAGGSLRLSCAASGSIFKYNDMGWYRQAPGKERELVAAITSDSSTYYADSVKGRFTISRDNAKNTVYLQMNSLKPVDTAVYYCAADTTGFTTYAYWYDYWGQGTQVTVSS”, the “polyreactivity (PSR sort gate)” value was “low polyreactivity”.
Then “QVQLVESGGGLVQAGGSLRLSCAASGNILHYYTMGLYRQAPGKETELVARINYSTGSTYYADSVKGRFTISRDNAKNTVYLQMNSLKPEDTAVYYCAAEKERDEEYDYWGQGTQVTVSS”, with “low polyreactivity”; and “QVQLVESGGGLVQAGGSLRLSCAASGLTFPWYAMGWYRQAPGKERELVAGISWSGGSTYYADSVKGRFTISRDNAKNTVYLQMNSLKPEDTAVYYCAARVWYYDYWGQGTQVTVSS”, with “high polyreactivity”; and “QVQLVESGGGLVQAGGSLRLSCAASGSTFSGNAMGWYRQAPGKERELVAAINSVRTYYADSVKGRFTISRDNAKNTVYLQMNSLKPEDTAVYYCAARQGYSSRYPAKGYYWGQGTQVTVSS”, with “high polyreactivity”.
Then “QVQLVESGGGLVQAGGSLRLSCAASGSIFAGNVMGWYRQAPGKERELVAAISRRGGRTYYADSVKGRFTISRDNAKNTVYLQMNSLKPEDTAVYYCAARRDPVLGNSDFWGQGTQVTVSS”, with “high polyreactivity”.
Then “QVQLVESGGGLVQAGGSLRLSCAASGSTFYGYAMGWYRQAPGKERELVAAISWSGASTYYADSVKGRFTISRDNAKNTVYLQMNSLKPDDTAVYYCNKRYRGYFNWPHGYWGQGTQVTVSS”, with “high polyreactivity”.
For “QFQLVYSGGGLVQAGGSLRLSCAASGRTYGIYAMVWYRQAPGKERDLVAAISSDASTSYADSLKGRFTISRDNAKITVYLQMNSLKPEDTAVYYCGADPGTYYEWGYVYWGQGTQVTVSS”, the “polyreactivity (PSR sort gate)” value is given as “low polyreactivity”.
The same measure for “QVQLVESGGGLVQAGGSLRLSCAASGSTFDYYDMGWYRQAPGKERELVATITSGGSTNYADSVKGRFTISRDNAKNNVYLQMNILKTEDTAVFYCASDIGGDGEGYDYWGQGTQVTVSS”: “low polyreactivity”; for “QVQLEESGGRLVQAGARLRLSCAASGPIFHQYAMGWYRHAPGKERELGAAISSGGGSTYYADSVKGRFTISRDNAKNTGYLQMNSLKPEDTAVYYCNVYSVRWARFDFWGQGTQVTVSS”: “high polyreactivity”; for “QVQLVESGGGLVQAGGSLRLSCAASGSIFKEYAMGWYRQAPGKERELVAAITGSGGSTFYADSVKGRFTISRDNAKNTVYLQMNSLIPEDTAVYYCNARRPAKSRYRHDYWGQGTQVTVSS”: “high polyreactivity”.
The same measure for “QVQLVESGGGLDQAGGSLRLSCAASGSIFVYYAMGWYRHAPGKEMELVAAITSGTSTNYADSVKGRFTISRDNAQNTVYLQMNSLKPEDTAVYYCAADHYYTGTTYNYWGQGNQVTVSS”: “low polyreactivity”; for “QVQLVESGGGLVQAGGSLRLSCAASGSIFYFYAMGWYRQAPGKERELVAAITSGGSTYYADSVEGRFTISRDNAKNTVYLQMNSLKPEDTAVYYCAAQFYDLYHGTTYDYWGQGTQVTVSS”: “high polyreactivity”; for “QVQLVESGGGLVQAGGSLRLSCAASGRIFFYYAMGWYRQAPGKERELVATISYSGGGTYYADSVKGRFTISRDNAKNTVYLQMNSLKPEDTAVYYCNARWGTPYYIQDFDYWGQGTQVTVSS”: “low polyreactivity”.
Then “QVQLVESGGGLVQAGGSLRLTCAASGSIFRWNAMGWYRQAPGKERELVASITSGGSTYYADSVKGRFTISRDNAKNTVYLQMISLKPEDTAVYYCAAARYPGRKFDYWGQGTQVTVSS”, with “high polyreactivity”; and “QVQLVESGGGLVQAGGSLRLSCAASGSTFVYYAKGWYRQAPGKEREFVAAISISTGSTYYADSVKGRFTISRDNAKNTVYLQMNSLKPEDTAVYYCAVDWFLGGYDDLDYWGQGTQVTVSS”, with “low polyreactivity”.
As for “QVQIVESGGGLVQAGGSLRLSCAASGSIFRGYAKGWYRQAPGKERELVAAITQRAGSTYYADSVKGRFTISRDNAKNTVYLQMNSLKPEDTAVYYCAADVFYVFLHRVWYNYWGQGTQVTVSS”, the “polyreactivity (PSR sort gate)” value is listed as “low polyreactivity”.
Then “QVQLVESGGGLVQAGGSLRLSCAASGGIFSWYDMGWYRQAPGKEREFVATITYSGGSTYYADSVKGRFTISRDNAKNTVYLQMNSLKPEDTAVYYCAAARYWYRRFDYWGQGTQVTVSS”, with “high polyreactivity”; and “QVQLVESGGGLDQARGSLRLSCAASGRIFWRYAMGWYRQAPGKERELVASISSGGSTNYADSVKGRFTISRDNAKNTVYLQMNSLKPEDTAVYYCNAQAWHLGVITGRWNRYEYWGQGTQVTVSS”, with “high polyreactivity”.
Take “QVQLVESGRGLVQAGGSLRLSCASSGSTCVRNVMGWYRQAPGKERELVAAISRRGGGTYYADSVKGRFTISRDNAKNTVYLQMNSLKPEDTAVYYCATGSIAAGHYAYNYWGQGTQVTVSS”: the “polyreactivity (PSR sort gate)” value is reported as “high polyreactivity”.
Take “QVQLVESGGCLVQAGGSLRLSCAASGSIINYYAMGWFRQAPGKERELVAGITTSGGSTYYADSVKGRFTISRDNAKHTVDLQMNSLKPEDTAVYYCAAYDYSSSTYFLDDYWGQGTQVTVSS”: the “polyreactivity (PSR sort gate)” value is recorded as “low polyreactivity”.
The same measure for “QVQLVESGGGLVQAGGSLRLSCAASGSTFLGYAMGWYRQAPGKERELVAAITYSGGGTYYADSVKGRFTISRDNAKNTVYLQMNSLKPEDTAVYYCNADVSWSYSVYREYGMDYWGQGTQVTVSS”: “low polyreactivity”.
Then “QVQHVESGGGLVQAGGSLRLSCAASGRIFHYYAMGWYRQAPGKERELVAAINKSGGRTYYADSVKGRFTISRDNAKNTVYLQMNSLKPEDTAVYYCNKRSVPGTYYPTPVRYKYDYWGQGTQVTVSS”, with “high polyreactivity”.
Consider “QVQLVESGGGLVQAGGSLRLSCAASGFSFDSYALGWYRKAPGKERELVAAISRSGGSTYYADSVKGRFTISRDNAKNTVYLQMNSLKPEDTAVYYCARDRDSWGGHDSWGQGTQVTVSS”, for which the “polyreactivity (PSR sort gate)” value is recorded as “high polyreactivity”.
The same measure for “QVQLVESGGGLVQAGGSLRLSCAASGRTFFWYAMGWYRQAPGKERELVAAITYRGGGTYYADSVKGRFTISRDNAKNTVYLQMNSLKPEDTAVYYCAAEYWVGVYLYDYWGQGTQVTVSS”: “high polyreactivity”; for “QVQLVESGGGLVQAGGSLRLSCAASGIIIDTNAMGWYRQAPGTERELVASISKRGGSTYYADSVKGRFTISRDNAKNTVYLQMNSLKPEDTAVYYCNALRRRQYHDDYWGQGTQVTVSS”: “high polyreactivity”.
The same measure for “QVQLVESGGGLVQAGGSLRLSCAASGLTFVRYTMGWYRQPPGKVRELVAAITRGDGTNYADSVKGRFTISRDNAKNTVYLHLNCMKPEDTAVYLCADQEHFLWNYYAFDYWGQGTQVTVSS”: “low polyreactivity”.
In the case of “QVQLVESGGGLVQAGGSLRLSCAASGLIIYYYAMGWYRQAPGKERELVAAITWTAGSTSYADSVKGRFTISRDNAKNTVYLQMNSLKPEDTAVYYCAADYRHDTFSNQYDYWGQGTQVTVSS”, the “polyreactivity (PSR sort gate)” value is on record as “low polyreactivity”.
The same measure for “QVQLVESGGGLVQAGGSLRLSCAASGFIFRYNTMGWYRQAPGKERELVAAISVSGARTYYADSVKGRFTISRDNAKNTVYLQMNSLKPEDTAVYYCNRRYPFYSRYNNDYWGQGTQVTVSS”: “high polyreactivity”; for “QVQLVESGGGLVQAGGSLRLSCAASGRIFYINAMGWYRQAPGKERELVAAISGSGGDTYYADSVKGRFTISRDNAKNTVYLQMNSMKPEDTAVYYCGAEVYTWGQGTQVTVSS”: “low polyreactivity”.
The same measure for “QVQLVESGGGLVQAGGSHRLSSAASGSTFAYHHMGWYRQAPGKEREFVADIRSGGNTNYADSVKGRFTISRDNAKKTVYLLMNSLNPEDTAVYYCATDGYRIDVYHPDYRYDYWGQGSQVTVSS”: “low polyreactivity”; for “KVQLVDSGGGLVQAGGSLRLSCAASGSTSKCYAMGWYRPEPGKERELVAAITKTGGRTYYADSVKGRFTISRDNAKNTVYLQMNSLKPEDTADYYCAVEYLRGFIVIYDYWGQGTQVTVTS”: “high polyreactivity”.
Take “QVQLVESGGGLVQAGGSLRLSCAASGLIFVINAMGWYRQAPGKERELVATISSGVSTNYADSVKGRFTISRDNAKNTVYLQMNSLKPEDTAVYYCNAPEITYYYAPWETKIYDYWGQGTQVTVSS”: the “polyreactivity (PSR sort gate)” value is listed as “low polyreactivity”.
Then “QVQLVESGGGLVQAGGSLRLSCAASGFIFQYNAMGWYRQAPGKERELVAAISKSGGRTYYADSVKGRFTISRDNPKNTVDLQMNSLKPEDTAVYYCAALYVWLWGYRFDYWGQGTQVTVSS”, with “high polyreactivity”.
Then “QVQLQESGGGLVQAGGSLLSCAASGTISSYREMGWYRQAPGKELELVAGIGVGTITYYADSVKGRFTISRDNAKNTVYLQMNSLKPEDTAVYYCAAHIDGNDSHAYWGQGTQVTVSS”, with “low polyreactivity”.
Then “QVQLVDSGGGLVQAGGSLRLSCAASGFIFIFYTMGWYRQAPGNERELVAAISRSGGSTYYADSVKGRFTISRDNAKNTVYLQMNSLKPEDTAVYYCAARAKLSHRWRSYYWGQGTQVTVSS”, with “high polyreactivity”; and “QVQLVESGGGLVQAGGSLRLSCAASGRTFSLDAMGWYRQAPWKERELVASITDSTGGSTYYADSVKGRFTISRDNAKNTVYLQMNSLKPEDTAVYYCAAQDSQYSDYQWWFGYWGQGTQVTVSS”, with “low polyreactivity”; and “QVQLVESGGGLVQAGGSLRLSCAASGSIFRINAMGWYRQAPGKERELVAAITRSGGSTFYADSVKGRFTISRDNAKNTVYLQMNSLKPEDTAVYYCAAVWYYSTVPARYEYWGQGTQVTVSS”, with “low polyreactivity”.
Turning to “QVQLVESGGGLVQAGGSLRLSSAGSGRIFQPYAMGWYRQAPGKERELVAAITRRAGSTYYADSVKGRFTISRDNAKNTVYLQMNSLKPEDTAVYYWAARGLYWAYEMEDWGQGTQVTVSS”, the “polyreactivity (PSR sort gate)” value was “low polyreactivity”.
Then “QVQLVESGGGLVQAGGSLRFSCAASGSTFGDYTMGWYRQAPGKERELVAAISTSGTITYYADSVKGRFTISRDNAKNTVYLQMNSLKPEDTAVYYCAKLSQYTPVNDGYYWGQGTQVTVSS”, with “low polyreactivity”.

The record behind these values is the nanobody polyreactivity screen of Harvey et al. (2022).
